The values that follow come from patent US8124835B2, “Acyl-coa-dependent diacylglycerol acyltransferas 1 (DGAT1) gene from Tropaeolum majus, protein encoded thereby and uses thereof” (National Research Council of Canada, priority 2006, dated 2012).

Entries after “also recorded” stand apart in the source; their conditions may differ.

The test deals with DGAT activity. Put plainly: DGAT activity of site-directed mutagenized (SDM) TmDGAT1s expressed in yeast quadruple mutant H1246 MATα. In kind it is biochemical, Tropaeolum majus. From the text:
FIG. 13. Expression of site-directed mutagenized (SDM) TmDGAT1 cDNAs in yeast quadruple mutant H1246 MATα. (A) The nasturtium DGAT1 cDNAs in pYES2/NT plasmid were transformed into a yeast DGAT mutant strain: H1246 MATα. The specific SDM changes were: F2R=Phe^439 to Arg (SEQ. ID. NO: 4, refer to SEQ. ID. NO: 10 for the nucleotide sequence); P2R=Pro^216 to Arg (SEQ. ID. NO: 5, refer to SEQ. ID. NO: 11 for the nucleotide sequence); Y2G_W2G=Tyr^392 to Gly+Trp^395 to Gly (SEQ. ID. NO: 9, refer to SEQ. ID. NO: 15 for the nucleotide sequence); Y2A=Tyr^392 to Ala (SEQ. ID. NO: 8, refer to SEQ. ID. NO: 14 for the nucleotide sequence); S2A=Ser^197 to Ala (SEQ. ID. NO: 6, refer to SEQ. ID. NO: 12 for the nucleotide sequence) and E2V=E^145 to Val (SEQ. ID. NO: 7, refer to SEQ. ID. NO: 13 for the nucleotide sequence). Yeast cells transformed with pYES2/NT plasmid only was used as a control. The mutant, transformed with the native TmDGAT1, was used as a positive DGAT control. Following the induction in the presence of galactose, the transformants were lysed and assayed for DGAT activity. (B) Western blot of the SDM TmDGATs using an Anti-Xpress antibody. Following a 7 h lyse, a 15,000×g protein pellet isolated and proteins separated by SDS-PAGE.
FIG. 14. SDM TmDGATs (SnRK1 and Tyr-P sites) activity utilizing ^14C labeled erucoyl-CoA or oleoyl-CoA+sn-1,2-diolein or dierucin. SDM TmDGATs were transformed into yeast DGAT mutant, H1246 MATα, following induction by galactose the yeast were assayed for DGAT activity. Activity is expressed as a percent of native TmDGAT, with native TmDGAT activity set at 100%.
The TmDGAT1 ORF (SEQ. ID. NO: 2) in pYES2.1/V5-His-TOPO plasmid was transformed into a quadruple yeast mutant H1246MATα (Sandager et al, 2002) using the S.c. EasyComp™ transformation Kit (Invitrogen). Yeast cells transformed with pYES2.1/V5-His-TOPO plasmid only were used as a control. Transformants were selected by growth on synthetic complete medium lacking uracil (SC-ura), supplemented with 2% (w/v) glucose. The colonies were transferred into liquid SC-ura with 2% (w/v) glucose and grown at 28° C. overnight. The overnight cultures were diluted to an OD of 0.4 in induction medium (SC-ura+2% Galactose+1% Raffinose), and were induced for 24-36 hours at 28° C. Cells were collected and broken using glass beads. The crude protein concentration in the lysates was normalized using the Biorad assay based on the method of (Bradford, 1976) and assayed for DGAT activity. DGAT assays were conducted at pH 7.4, with shaking at 100 rev/min in a water bath at 30° C. for 60 min. Assay mixtures (0.5 ml final volume) contained 500 μg lysate protein normalized as described above, 90 mM HEPES-NaOH, 200 μM sn-1,2 diolein or sn-1,2 dierucin (pre-purified by TLC on 10% borate silica H plates) in 0.02% Tween-20, and 18 μM 1-^14C acyl-CoA (specific activity 2 nCi/nmol) as the acyl donor. The ^14C-labelled TAGs were isolated and counted as described above for insect cell expression.
To introduce point mutations into the Tropaeolum majus DGAT1 coding region, we used a QuikChange™ site-directed mutagenesis kit (Stratagene). Primers were complementary to opposite strands of pYES2.1/V5-His TOPO yeast expression vector (Invitrogen) containing the TmDGAT1 gene. During the PCR, primers were extended with PfuTurbo DNA polymerase. This polymerase replicated both strands with high fidelity and without displacing the mutated oligonucleotide primers. The cycling parameters used for site-directed mutagenesis were as follows: initial denaturation at 95° C. for 30 s, followed by 15 cycles at 95° C. for 30 s, 55° C. for 1 min, and 68° C. for 15 min, with termination at 68° C. for 15 min. Following the PCR reaction, the product was treated with DpnI endonuclease (target sequence: 5′-Gm6ATC-3′) which is specific for methylated and hemimethylated DNA, used to digest the parental DNA template and to select for the mutated DNA.

[1] abbreviates: recombinant SDM protein from yeast H1246MATα.

B1: P216R (protein)
chain: MAVAESSQNTTTMSGHGDSDLNNFRRRKPSSSVIEPSSSGFTSTNGVPATGHVAENRDQDRVGAMENATGSVNLIGNGGGVVIGNEEKQVGETDIRFTYRPSFPAHRRVRESPLSSDAIFKQSHAGLFNLCIVVLIAVNSRLIIENLMKYGWLIDTGFWFSSRSLGDWSIFMCCLTLPIFPLAAFIVEKLVQRNHISELVAVLLHVIVSTAAVLYRVIVILTCDSVYMSGVVLMLFGCIMWLKLVSYAHTSSDIRTLAKSGYKGDAHPNSTIVSCSYDVSLKSLAYFMVAPTLCYQPSYPRSSCIRKGWVVRQFVKLIVFIGLMGFIIEQYINPIVRNSKHPLKGDFLYAIERVLKLSVPNLYVWLCMFYSFFHLWLNILAELLRFGDREFYKDWWNAKTVAEYWKMWNMPVHRWMVRHLYFPCLRNGIPKEGAIIIAFLVSGAFHELCIAVPCHVFKLWAFIGIMFQVPLVLITNYLQEKFSNSMVGNMIFWFIFCILGQPMCVLLYYHDLINLKEK
Regarding B1, the “DGAT1 activity compared to recombinant WT TmDGAT1 (in words)” value reads like this: (recombinant SDM protein from yeast H1246MATα, listed as Proline^216 (changed to an Arg)) “total loss of DGAT activity; also recorded: abolished”; (recombinant SDM protein from yeast H1246MATα, listed as Proline^216 with Arginine) “total loss of DGAT1 activity”.

B2: Y392G + W395G (protein)
chain: MAVAESSQNTTTMSGHGDSDLNNFRRRKPSSSVIEPSSSGFTSTNGVPATGHVAENRDQDRVGAMENATGSVNLIGNGGGVVIGNEEKQVGETDIRFTYRPSFPAHRRVRESPLSSDAIFKQSHAGLFNLCIVVLIAVNSRLIIENLMKYGWLIDTGFWFSSRSLGDWSIFMCCLTLPIFPLAAFIVEKLVQRNHISELVAVLLHVIVSTAAVLYPVIVILTCDSVYMSGVVLMLFGCIMWLKLVSYAHTSSDIRTLAKSGYKGDAHPNSTIVSCSYDVSLKSLAYFMVAPTLCYQPSYPRSSCIRKGWVVRQFVKLIVFIGLMGFIIEQYINPIVRNSKHPLKGDFLYAIERVLKLSVPNLYVWLCMFYSFFHLWLNILAELLRFGDREFGKDGWNAKTVAEYWKMWNMPVHRWMVRHLYFPCLRNGIPKEGAIIIAFLVSGAFHELCIAVPCHVFKLWAFIGIMFQVPLVLITNYLQEKFSNSMVGNMIFWFIFCILGQPMCVLLYYHDLINLKEK
B2: the “DGAT1 activity compared to recombinant WT TmDGAT1 (in words)” value under setting [1] is reported as “total loss of activity”.

B3: S197A: SDM TmDGAT1, Ser197 to Ala in putative SnRK1 phosphorylation motif (SEQ ID NO: 6) (protein, listed as Tropaeolum majus)
chain: MAVAESSQNTTTMSGHGDSDLNNFRRRKPSSSVIEPSSSGFTSTNGVPATGHVAENRDQDRVGAMENATGSVNLIGNGGGVVIGNEEKQVGETDIRFTYRPSFPAHRRVRESPLSSDAIFKQSHAGLFNLCIVVLIAVNSRLIIENLMKYGWLIDTGFWFSSRSLGDWSIFMCCLTLPIFPLAAFIVEKLVQRNHIAELVAVLLHVIVSTAAVLYPVIVILTCDSVYMSGVVLMLFGCIMWLKLVSYAHTSSDIRTLAKSGYKGDAHPNSTIVSCSYDVSLKSLAYFMVAPTLCYQPSYPRSSCIRKGWVVRQFVKLIVFIGLMGFIIEQYINPIVRNSKHPLKGDFLYAIERVLKLSVPNLYVWLCMFYSFFHLWLNILAELLRFGDREFYKDWWNAKTVAEYWKMWNMPVHRWMVRHLYFPCLRNGIPKEGAIIIAFLVSGAFHELCIAVPCHVFKLWAFIGIMFQVPLVLITNYLQEKFSNSMVGNMIFWFIFCILGQPMCVLLYYHDLINLKEK
As to B3, the “increase in trierucin production compared to the native DGAT1” value (erucoyl-CoA:sn-1,2-dierucin pairing of substrates) is ~40%. Moreover, under setting [1], the “increase in DGAT1 activity compared to wild type TmDGAT1” value was “up to 125%”.

B4: Y392A (protein)
chain: MAVAESSQNTTTMSGHGDSDLNNFRRRKPSSSVIEPSSSGFTSTNGVPATGHVAENRDQDRVGAMENATGSVNLIGNGGGVVIGNEEKQVGETDIRFTYRPSFPAHRRVRESPLSSDAIFKQSHAGLFNLCIVVLIAVNSRLIIENLMKYGWLIDTGFWFSSRSLGDWSIFMCCLTLPIFPLAAFIVEKLVQRNHISELVAVLLHVIVSTAAVLYPVIVILTCDSVYMSGVVLMLFGCIMWLKLVSYAHTSSDIRTLAKSGYKGDAHPNSTIVSCSYDVSLKSLAYFMVAPTLCYQPSYPRSSCIRKGWVVRQFVKLIVFIGLMGFIIEQYINPIVRNSKHPLKGDFLYAIERVLKLSVPNLYVWLCMFYSFFHLWLNILAELLRFGDREFAKDWWNAKTVAEYWKMWNMPVHRWMVRHLYFPCLRNGIPKEGAIIIAFLVSGAFHELCIAVPCHVFKLWAFIGIMFQVPLVLITNYLQEKFSNSMVGNMIFWFIFCILGQPMCVLLYYHDLINLKEK
Turning to B4, the “decrease in DGAT1 activity compared to wild type TmDGAT1” value under setting [1] was determined as 80%.

B5: E145V: SDM TmDGAT1, Glu145 to Val in the catalytic site (SEQ ID NO: 7) (protein, listed as Tropaeolum majus)
chain: MAVAESSQNTTTMSGHGDSDLNNFRRRKPSSSVIEPSSSGFTSTNGVPATGHVAENRDQDRVGAMENATGSVNLIGNGGGVVIGNEEKQVGETDIRFTYRPSFPAHRRVRESPLSSDAIFKQSHAGLFNLCIVVLIAVNSRLIIVNLMKYGWLIDTGFWFSSRSLGDWSIFMCCLTLPIFPLAAFIVEKLVQRNHISELVAVLLHVIVSTAAVLYPVIVILTCDSVYMSGVVLMLFGCIMWLKLVSYAHTSSDIRTLAKSGYKGDAHPNSTIVSCSYDVSLKSLAYFMVAPTLCYQPSYPRSSCIRKGWVVRQFVKLIVFIGLMGFIIEQYINPIVRNSKHPLKGDFLYAIERVLKLSVPNLYVWLCMFYSFFHLWLNILAELLRFGDREFYKDWWNAKTVAEYWKMWNMPVHRWMVRHLYFPCLRNGIPKEGAIIIAFLVSGAFHELCIAVPCHVFKLWAFIGIMFQVPLVLITNYLQEKFSNSMVGNMIFWFIFCILGQPMCVLLYYHDLINLKEK
With B5, the “decrease in DGAT1 activity compared to wild type TmDGAT1” value under setting [1] was found to be 43%.
